Measurements published in patent publication US20220143148A1, “COMPOSITIONS AND METHODS FOR MODULATING CGRP SIGNALING TO REGULATE INTESTINAL INNATE LYMPHOID CELLS” (The Broad Institute, Inc., priority 2019, published 2022).

Tested on: small intestinal immune cells
Assay: Droplet-based scRNA-seq of small intestinal immune cells (LP and PP), OVA vs PBS, clustering and differential expression
Assay type: in vivo, mouse
Conditions: PP; cluster ID 8; OVA vs PBS
From the text: To comprehensively characterize small intestinal immune cells, Applicants generated scRNA-Seq profiles for 58,067 immune cells collected from lamina propria (LP) and Peyer's patch (PP) regions at steady state and after induction of a type 2 inflammatory reaction to ovalbumin (OVA) (Brandt et al., 2003) (FIGS. 1A and 8A). To ensure sufficient representation of rare cells, Applicants combined a normalization strategy—removing by flow sorting either a portion of IgD+ naïve B cells, which are the most abundant cell type in PPs, or all CD19+ and CD3+ T cells (FIG. 8B, Methods)—with profiling of a sufficiently large number of cells number (P>0.99 to recover at least 15 cells from each cluster, Methods) by massively parallel scRNA-seq (Haber et al., 2017) (Methods). Applicants obtained 36,797 and 21,270 high quality cells passing initial filtering (Methods) from PP and LP regions, respectively.
Overall, Applicants annotated 27 cell subsets across the two compartments, spanning T cells, B cells, ILCs, dendritic cells (DCs), myeloid cells and stromal cells, in frequencies ranging from 0.07% to 14%. Briefly, Applicants first partitioned the cells from the PP regions by unsupervised clustering (Methods) into 46 clusters, retained the 97% of cells that were robustly assigned cell identities in each cluster (Methods), assigned the cells from the LP regions to the 46 clusters using a classifier (Methods), and visualized the data with scvis (Ding et al., 2018), a deep generative model-based method (FIGS. 1B and 8C, Methods). Next, Applicants identified genes that were differentially expressed between the cells in each cluster and the remaining cells (Table 1, Methods), as well as between pairs of clusters (Table 2), to elucidate identities of similar cell types/states. Applicants excluded from downstream analysis clusters mostly consisting of contaminants from epithelium, likely doublets, or cells with a small number of Unique Molecular Identifiers (UMIs) (FIGS. 1C and 8D), or lacking distinct markers (Methods). Altogether, Applicants retained 27 clusters spanning 85% of the cells and each associated with distinct marker genes (FIG. 8E, Methods).
To induce allergic reaction to OVA, 6 to 7 weeks old mice were sensitized twice, two weeks apart, with 50 μg of OVA plus 1 mg of aluminum potassium sulfate adjuvant via intraperitoneal injection. Two weeks later, mice were orally administered with 50 mg of OVA on every other day for a total of five times. 1 μg of α-CGRP peptide was administered simultaneously when indicated. Mice were deprived of food for 3-4 hours in cages with wood chip bedding for limiting antigen degradation in the stomach before each intragastric challenge.
Isolation of cells from Peyer's patches (PPs). Peyer's patches (PPs) were carefully dissected from the small intestine under a stereo microscope using a fine scissor, pierced once with a fine forcep. Tissues were digested in freshly made digestion buffer (RPMI-1640 containing 100 μg/ml Liberase™ and 50 μg/ml DNase I at 37° C. on a roto-mixer. After 15 min, tissues were very gently mixed using a 1 ml pipette. The supernatant was collected and added to ice-cold MACS buffer (pH 7.4; PBS plus 2% FCS and 2 mM EDTA). Pre-warmed (37° C.) fresh digestion buffer was added to the remaining tissues. After rotation at 37° C. for 15 min, the mixture was vigorously mixed using a 1 ml pipette for 1 min. Supernatants from the two steps were combined and passed through 70 μm filters and stained for FACS (below).
Isolation of cells from the lamina propria (LP). The small intestines were opened longitudinally and washed in ice-cold PBS. For scRNA-seq, roughly 0.5 cm of fragments from each of the distal, middle and proximal regions without visible PPs were collected. Epithelial cells were dissociated by tissue rotation in pre-warmed (37° C.) PBS containing 10 mM EDTA at 37° C. for 15 min, followed by additional incubation on ice for 15 min. Tissues were then shaken vigorously. […]

B1: OVA (protein, UniProt P01012 2-386, looked up)
Ovalbumin: GSIGAASMEFCFDVFKELKVHHANENIFYCPIAIMSALAMVYLGAKDSTRTQINKVVRFDKLPGFGDSIEAQCGTSVNVHSSLRDILNQITKPNDVYSFSLASRLYAEERYPILPEYLQCVKELYRGGLEPINFQTAADQARELINSWVESQTNGIIRNVLQPSSVDSQTAMVLVNAIVFKGLWEKAFKDEDTQAMPFRVTEQESKPVQMMYQIGLFRVASMASEKMKILELPFASGTMSMLVLLPDEVSGLEQLESIINFEKLTEWTSSNVMEERKIKVYLPRMKMEEKYNLTSVLMAMGITDVFSSSANLSGISSAESLKISQAVHAAHAEINEAGREVVGSAEAGVDAASVSEEFRADHPFLFCIKHIATNAVLFFGRCVSP
  Fosl2 LN (average fold change): −0.358
  Ftl1 LN (average fold change): −0.171
  Gadd45b LN (average fold change): −0.563
  Gimap1 LN (average fold change): 0.283
  Gimap6 LN (average fold change): 0.272
  Gimap9 LN (average fold change): 0.367
  Gnai2 LN (average fold change): −0.261
  Gramd1a LN (average fold change): 0.460
  Gramd3 LN (average fold change): −0.502
  Gzma LN (average fold change): 0.340
  H2-K1 LN (average fold change): 0.192
  H3f3b LN (average fold change): −0.185
  Hcst LN (average fold change): 0.174
  Hist1h1c LN (average fold change): 0.586
  Hist1h1e LN (average fold change): 1.277
  Icam1 LN (average fold change): −0.819
  Id2 LN (average fold change): 0.467
  Ier2 LN (average fold change): −0.235
  Ier5l LN (average fold change): −1.422
  Ifi203 LN (average fold change): 0.402
  Ifrd1 LN (average fold change): −0.708
  Igha LN (average fold change): 0.514
  Igkc LN (average fold change): 0.390
  Ikzf2 LN (average fold change): −0.467
  Il2rg LN (average fold change): −0.226
  Il16 LN (average fold change): 0.455
  Jun LN (average fold change): 0.210
  Jund LN (average fold change): −0.703
  Kdm2b LN (average fold change): −0.379
  Kdm6b LN (average fold change): −0.833
  Klf4 LN (average fold change): −0.524
  Klf6 LN (average fold change): 0.166
  Klrb1c LN (average fold change): 0.233
  Klrb1f LN (average fold change): 0.487
  Klrc1 LN (average fold change): 0.392
  Klrc2 LN (average fold change): 0.396
  Klrd1 LN (average fold change): 0.261
  Klre1 LN (average fold change): 0.295
  Klrk1 LN (average fold change): 0.213
  Lax1 LN (average fold change): 0.486
  Litaf LN (average fold change): −0.518
  Lmna LN (average fold change): −1.022
  Maff LN (average fold change): −0.445
  Mcpt1 LN (average fold change): 1.756
  Mir142hg LN (average fold change): −0.715
  Ms4a4b LN (average fold change): 0.271
  Ms4a6b LN (average fold change): 0.490
  Myl6 LN (average fold change): 0.199
  Nabp1 LN (average fold change): −0.167
  Ncr1 LN (average fold change): 0.265
  Ndel1 LN (average fold change): −0.337
  Neat1 LN (average fold change): 0.275
  Neurl3 LN (average fold change): −0.244
  Nfil3 LN (average fold change): 0.490
  Nfkb1 LN (average fold change): −0.244
  Nfkbia LN (average fold change): −0.579
  Nfkbid LN (average fold change): −1.010
  Nfkbie LN (average fold change): −0.483
  Nfkbiz LN (average fold change): −0.640
  Ninj1 LN (average fold change): −0.512
  Nkg7 LN (average fold change): 0.194
  Nr4a1 LN (average fold change): −0.415
  Nr4a2 LN (average fold change): −0.530
  Nr4a3 LN (average fold change): −0.808
  Odc1 LN (average fold change): −0.540
  P2ry10 LN (average fold change): −0.196
  Phlda1 LN (average fold change): −0.867
  Pim1 LN (average fold change): −0.358
  Pnrc1 LN (average fold change): −0.302
  Ppp1r15a LN (average fold change): −0.355
  Ppp1r16b LN (average fold change): −0.367
  Ppp3cc LN (average fold change): 0.528
  Prr7 LN (average fold change): −0.910
  Ptp4a2 LN (average fold change): −0.243
